{"source": "patent US6960343B2", "about": "“Toll/interleukin-1 receptor adapter protein (TIRAP)” (Yale University School of Medicine, priority 2001, dated 2005)", "key": {"TLR4": {"biological_target": "T1, TLR4 (Homo sapiens, UniProt O00206)", "T1 construct": "a Myc-tagged TLR4 deletion construct lacking the ectodomain (Myc TLR4 wt); Myc; expressed in transfected cells; host or cells: 293T cells", "T1 sequence (O00206 653-839 limits assumed)": "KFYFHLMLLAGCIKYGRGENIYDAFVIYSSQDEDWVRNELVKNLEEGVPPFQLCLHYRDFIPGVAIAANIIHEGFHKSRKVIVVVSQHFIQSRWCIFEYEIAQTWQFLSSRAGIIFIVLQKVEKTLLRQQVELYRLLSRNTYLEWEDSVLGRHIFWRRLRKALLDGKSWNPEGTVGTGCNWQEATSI", "experiment": "Co-immunoprecipitation with Myc-tagged TLR4 in 293T cells", "type": "binding", "conditions": "293T cell lysates, anti-Flag immunoprecipitation", "text": "Cells were transfected in the presence (+) or absence (−) of constructs encoding a wild-type portion of TLR4 (TLR4 wt), a mutant derivative thereof (TLR4 mut), wild-type TIRAP (TIRAP), a mutant TIRAP containing a P125H mutation (TIRAP PH), or wild-type MyD88 (MyD88), wherein each construct further encodes a Myc, Flag, or hemaglutanin (HA) tag, as indicated. Antibodies used for immunoprecipitation (IP) or immunoblot (IB) are indicated to the left of each blot.\nTo obtain biochemical conformation for a role of TIRAP in the TLR4 signaling pathway, TIRAP-TLR4 protein interactions were evaluated using co-immunoprecipitation experiments. 293T cells were co-transfected with 4.5 μg of a Myc-tagged TLR4 deletion construct lacking the ectodomain (Myc TLR4 wt) or its mutant derivative (Myc TLR4 P714H) in the presence or absence of 1.5 μg of Flag-tagged TIRAP (Flag TIRAP) or its mutant derivative containing the P125H mutation (Flag TIRAP PH). […] Immunocomplexes were washed, separated by SDS-PAGE electrophoresis, and then analyzed by immunoblotting with either anti-myc antibody to look for co-immunoprecipitated TLR4 or anti-Flag antibody to confirm immunoprecipitation of Flag TIRAP or Flag TIRAP P125H. Total cell lysates (35 μg/sample) were likewise analyzed by SDS-PAGE and immunoblotting to confirm equivalent expression of the appropriate proteins in every sample. […]"}, "IL-1R": {"biological_target": "T2, IL-1R (Homo sapiens, UniProt P14778)", "T2 construct": "expressed in transfected cells; host or cells: 293T cells", "T2 sequence (P14778 18-569)": "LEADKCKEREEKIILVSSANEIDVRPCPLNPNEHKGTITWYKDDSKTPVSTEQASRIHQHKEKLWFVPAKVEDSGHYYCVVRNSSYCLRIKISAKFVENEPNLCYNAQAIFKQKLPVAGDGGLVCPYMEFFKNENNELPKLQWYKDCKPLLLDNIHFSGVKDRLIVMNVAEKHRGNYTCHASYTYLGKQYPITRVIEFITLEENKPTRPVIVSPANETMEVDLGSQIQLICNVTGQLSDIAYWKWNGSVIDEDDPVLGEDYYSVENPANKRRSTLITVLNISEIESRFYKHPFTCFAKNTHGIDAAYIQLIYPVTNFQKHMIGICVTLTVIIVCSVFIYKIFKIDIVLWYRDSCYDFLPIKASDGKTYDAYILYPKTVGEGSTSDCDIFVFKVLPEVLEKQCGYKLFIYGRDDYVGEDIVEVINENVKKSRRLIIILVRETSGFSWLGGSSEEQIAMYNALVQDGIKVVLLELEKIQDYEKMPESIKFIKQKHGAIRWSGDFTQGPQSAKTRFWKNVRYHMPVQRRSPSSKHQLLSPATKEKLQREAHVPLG", "T2 sequence (Q9NPH3 21-570 partner)": "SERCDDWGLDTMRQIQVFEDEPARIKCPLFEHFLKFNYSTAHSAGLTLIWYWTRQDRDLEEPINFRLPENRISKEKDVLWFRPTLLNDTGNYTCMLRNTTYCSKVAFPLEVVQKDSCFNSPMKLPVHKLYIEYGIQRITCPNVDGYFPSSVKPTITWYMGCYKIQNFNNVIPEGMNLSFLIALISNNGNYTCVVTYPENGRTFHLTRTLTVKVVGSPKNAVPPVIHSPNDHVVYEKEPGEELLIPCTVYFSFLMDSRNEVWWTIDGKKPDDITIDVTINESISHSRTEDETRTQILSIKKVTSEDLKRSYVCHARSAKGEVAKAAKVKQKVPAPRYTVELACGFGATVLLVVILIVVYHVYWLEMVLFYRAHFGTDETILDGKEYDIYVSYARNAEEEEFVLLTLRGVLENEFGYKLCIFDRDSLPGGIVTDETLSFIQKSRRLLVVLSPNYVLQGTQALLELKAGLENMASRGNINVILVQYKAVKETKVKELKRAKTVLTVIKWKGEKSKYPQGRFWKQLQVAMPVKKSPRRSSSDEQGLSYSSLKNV", "experiment": "IL-1R-induced NF-κB activity, luciferase reporter, 293T cells", "type": "cell-based", "protocol": "Unlike TLR4, neither IL-1R nor TLR9 can induce NF-κB in the absence of MyD88 (Kawai 1999; Schnare 2000; Adache 1998). To assess the possibility that TIRAP is the putative adapter in the MyD88-independent signaling pathway, we tested TIRAP P125H for its ability to inhibit NF-κB activity induced y IL-1R and TLR9. 293T cells were co-transfected with either vector alone (pcDNA3), IL-1R (0.1 μg), and IL-1R AcP (0.1 μg) [Dr. Medzhitov: Please indicate what the IL-1R AcP construct encodes] plasmid cDNAs, with or without increasing concentrations (10 ng, 50 ng, 200 ng) of TIRAP P125H plasmid and the NF-κB-dependent luciferase reporter gene."}}}
{"substance": "TIRAP P125H: vector encoding a mutant form of TIRAP containing a proline to histidine mutation at amino acid position 125", "values": [{"measurement": "co-immunoprecipitation with TLR4", "setting": "TLR4", "result": "filed to co-immunoprecipitate"}, {"measurement": "inhibition of NF-κB activity induced by IL-1B cytokine", "setting": "IL-1R", "result": "did not inhibit"}, {"measurement": "inhibition of NF-κB activity induced by co-transfected IL-1R and IL-1R AcP", "setting": "IL-1R; 293T cells, 10 ng, 50 ng, 200 ng plasmid", "result": "did not inhibit"}]}
